In article PMC5487423, “Yeast surface display identifies a family of evasins from ticks with novel polyvalent CC chemokine-binding activities” (Scientific Reports, 2017):

Assays:
[1] = target: T1, P467_RHIPU, purified, C-terminal StrepII-8xHis tag (Rhipicephalus pulchellus, UniProt L7M8Z8 22-127); assay: BLI; Kd and koff determination: His-tagged evasin immobilised on Ni-NTA biosensor (OctetRed), chemokine dilutions from 300 nM to 0.4 nM, 30 °C, same buffer as the screen; reference protein subtracted; 1:1 model with global fit, or steady state; each experiment once; details: both partners purified
T1 sequence: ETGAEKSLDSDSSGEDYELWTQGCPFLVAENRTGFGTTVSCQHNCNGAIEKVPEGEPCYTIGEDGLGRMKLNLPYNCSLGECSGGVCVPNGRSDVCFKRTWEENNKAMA

[2] = target: T2, P991_AMBCA, purified, C-terminal StrepII-8xHis tag (Amblyomma cajennense, UniProt A0A023FFD0 29-136); assay: as above; details: both partners purified
T2 sequence: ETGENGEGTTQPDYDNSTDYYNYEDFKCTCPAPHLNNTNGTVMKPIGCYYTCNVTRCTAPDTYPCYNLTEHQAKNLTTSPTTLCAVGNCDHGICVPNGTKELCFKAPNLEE

B1: CCL3 (ligand, human, UniProt P10147 24-92, looked up)
chain: SLAADTPTACCFSYTSRQIPQNFIADYFETSSQCSKPGVIFLTKRSRQVCADPSEEWVQKYVSDLELSA
notes: source: bought: Peprotech
binding result [1]: binds

B2: CCL1 (ligand, human, UniProt P22362 24-96, looked up)
chain: KSMQVPFSRCCFSFAEQEIPLRAILCYRNTSSICSNEGLIFKLKRGKEACALDTVGWVQRHRKMLRHCPSKRK
notes: source: bought: Peprotech
binding result [1]: binds

B3: CCL8 (ligand, human, UniProt P80075 24-99, looked up)
chain: QPDSVSIPITCCFNVINRKIPIQRLESYTRITNIQCPKEAVIFKTKRGKEVCADPKERWVRDSMKHLDQIFQNLKP
notes: source: bought: Peprotech
binding result [1]: binds

B4: CCL5 (ligand, human, UniProt P13501 24-91, looked up)
chain: SPYSSDTTPCCFAYIARPLPRAHIKEYFYTSGKCSNPAVVFVTRKNRQVCANPEKKWVREYINSLEMS
notes: source: bought: Peprotech
binding result [2]: binds | binding result [1]: binds

B5: CCL18 (ligand, human, UniProt P55774 21-89, looked up)
chain: AQVGTNKELCCLVYTSWQIPQKFIVDYSETSPQCPKPGVILLTKRGRQICADPNKKWVQKYISDLKLNA
notes: source: bought: Peprotech
binding result [2]: binds | binding result [1]: binds

B6: CCL11 (ligand)
chain: not shown
notes: source: bought: Peprotech
binding result [1]: binds

B7: CCL7 (ligand)
chain: not shown
notes: source: bought: Peprotech
dissociation half-life [2]: 2.4 h
